# Test results as given in the supplement of paper PMC12042874.
# ± gives the uncertainty stated by the source.
# Experiment: amyloid nucleation score (Sup35N fusion, yeast selection) (log enrichment); library NNK3; higher = more nucleation; inactive = no reads after selection
# How it was run: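 After 24 hours of induction with 100 μM copper sulfate, psi-negative yeast expressing peptides of 20 random codons fused to Sup35N were grown for 7 days at 30°C on medium lacking adenine and uracil. Input and output plasmid inserts were sequenced with Illumina, and sequences with under 100 input reads were discarded. Scores for nucleation are the DiMSum log enrichment of output over input reads, centred on the mode score of non-aggregating sequences.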
row,Substance,amyloid nucleation score
1,LMAFNPMYSSQKYGTNYSFM,inactive
2,VSINRRLFCLLGDDFTS,inactive
3,RGIHEIGVMLKSVSQLE,inactive
4,RRLPPIRCSHNLNSVPQD,inactive
5,YLDSSSS,inactive
6,IEDAMVFLGTNSQTICLFNV,inactive
7,TPVMRSVNMMVLKTI,inactive
8,VHVRLQAPFPEAL,inactive
9,ANCPMHRLTAGNSLCLWTW,1.69 ± 0.086
10,KCCTGERYSLIGFLHFCGEM,0.891 ± 0.15
11,VISFLMKLRWYCTVHGSGGM,inactive
12,LNMHFENTIRGVPYTLVSGR,inactive
13,LELDCASNRLSPNGIYMYFW,0.123 ± 0.35
14,AMQAAPVCRRYAVVTTHFDH,inactive
15,LSSCLSRI,inactive
16,SLRNRLVVTSVDYRMHLRRG,inactive
17,MTYST,inactive
18,GCWECPTYQMLCTRVCLTWT,inactive
19,WKYWIWVFMNATYMDCVGML,inactive
20,PWFNFECL,inactive
21,RYLWVLNRIGPVWCSGFRVW,inactive
22,ERVRRTV,inactive
23,CVLRAFATVKHFTSGLCSCG,inactive

row,Substance,amyloid nucleation score
1,RRSSRSRRHAKRRRAIVRCG,inactive
2,KLVCRIIDAKAH,inactive
3,YAFHKTDSCCVMCVRGPAPT,inactive
4,MMLYALDRVAVTLGKSMLPA,inactive
5,RMHGETARWLGAQIWSDRSC,inactive
6,SRKWCQFYSCIIYTTNLLGR,1.85 ± 0.069
7,SFCWASKSVHRSRG,inactive
8,ENVLVVRMDRVLY,inactive
9,HVIHGCNSIFYSVS,inactive
10,MVFAMTYVLCDDMWSVIGHF,0.141 ± 0.26
11,VSGRWFTMWSGFSLCFALSG,0.062 ± 0.46
12,YSCVEDSGCVCKNPLVISEF,inactive
13,LIGSYICYAVGLMVTLNNWW,inactive
14,GVSRGLSLPRSLKYRYCCAV,inactive
15,SRSCNVLSEWRGINVNGWGN,-0.176 ± 1.1
16,RETLS,inactive
17,ARWVWDIKETVTLV,inactive
18,LKLYTLLDRNSNKRTNAGMS,-0.469 ± 0.88
19,TAVWRFATSGKFFYSQSLGM,1.41 ± 0.14
20,SGGTEKRSKRAGLLLFRTEE,inactive
21,DPSCGECFKA,0.961 ± 0.1
22,TCCICIMSSYRLGRNLLIEL,-0.075 ± 0.26
23,QWIGISNRLLYKDWLNWRYE,inactive

row,Substance,amyloid nucleation score
1,RHTPDSLQYFLVFKVSYGFL,inactive
2,RGVAVR,1.89 ± 0.077
3,ICPSNFWMFCSCYWSMLRNF,inactive
4,ANGLWKRIAFEGTARCEGMG,inactive
5,RSLSRNFSLCMGGSDRSGGL,inactive
6,FFLYLSKRLCVFCRCTYLGL,inactive
7,MDSCFRYVTYVTVLGLK,inactive
8,NSRLFAYKLKLVV,inactive
9,FPRHCKPRCL,inactive
10,FRESFLSSYVEYMTLGPGSN,-0.342 ± 0.87
11,SGWIYMERIAS,inactive
12,RPTTIGINNDW,inactive
13,KICRIYAMGVLLSDTVSTMS,inactive
14,GVMYQACWSLASTYFTVNSS,inactive
15,RANLPRLFQNDHNSWLDCVA,inactive
16,MKLCNVRGIKVFAFCSGSRR,1.3 ± 0.1
17,LCTYVFYPIANSSALSLNKV,inactive
18,FMSFLICNRILWSGG,inactive
19,MDVYLRCSGYILTPKMAWSQ,inactive
20,RYLDCFVVVLVSDFMLRYVS,inactive
21,LGLECVGPFCKGVYFWLDG,inactive
22,VRSLDNQLSVDFFFVGPVGF,1.3 ± 0.14
23,ILSNDEFTCKFCCSCSYRGG,0.956 ± 0.31

row,Substance,amyloid nucleation score
1,PIVRWVSSLLYVVRWLPRLA,inactive
2,SCVWFSL,inactive
3,VLSTVFKAKPNHNRAFMG,0.063 ± 0.78
4,SLCDMREWSALVFITHMSMV,inactive
5,ASAFYRCVGGIVYVHTIVGV,inactive
6,LLKVVD,inactive
7,MVVSVQIVFVQVTDMVYHVN,0.393 ± 0.24
8,NYLSASVCRRRDFI,inactive
9,QYVCVRS,inactive
10,VTASSPDLIGGVHMEWRLTC,inactive
11,GTGWVTSVFLCTVNWVDHRR,2.4 ± 0.084
12,RDWCSNLMYYDYPVTEGCDT,inactive
13,HWVWIGVCLYNDRRGTGICV,1.15 ± 0.16
14,AAIYYLSRAECNFSRYKNYL,inactive
15,FLYRDSSCRLSLM,inactive
16,VLRRLGWICL,inactive
17,SSGVTVDGSMCRI,inactive
18,NCVPSCSAAFKSISRQPHGS,0.115 ± 0.88
19,LCVFKWLILREYISITHDSI,inactive
20,ARIYCSWYPLYTFYLIHSH,0.644 ± 0.2
21,RMLGLNQYCSMLICTIVNFS,1.19 ± 0.11
22,FCDGPGTKY,inactive
23,SIMFGNLSMAKVKYMNFL,0.862 ± 0.12

row,Substance,amyloid nucleation score
1,RTSMPTTHGGLVLQSWDYRP,inactive
2,YAVYRTPFVSKLAMFQLVQ,-1.04 ± 1.9
3,WCFGYLHMNIV,inactive
4,GWPVSLN,inactive
5,VFSIKIYKPKSSFHDRFYSV,inactive
6,SRWVLSWSIVITIHLDMRSL,inactive
7,LFFYSYTSFSIC,inactive
8,SGCCLDSLYLTIRLDCLRWR,inactive
9,CVWTSVLDVRYLYWCNVDVR,inactive
10,ADTTCHFACKPKLDFLRKTT,inactive
11,RIINCDKLSQTTALYIKTFM,inactive
12,SNARKGLMNVLRRYWLCDWT,-0.412 ± 0.88
13,SKMLIWSYLHGGNRCDLSDW,inactive
14,HMPDFVCLFNHVMPWIWIRV,inactive
15,QKQFYGWVAESFARGATIPR,0.871 ± 0.21
16,ATICYEVRWEPDSSPGRS,inactive
17,RCVLSNSNLCFKFFRVQTME,inactive
18,WVHVRPKHCTSGLVTKFANM,inactive
19,QLEYNYCDKLVT,inactive
20,PSGSVCGPHHIPHVDVSGIS,inactive
21,DVLWSGSYSSRLPGSIRDCE,inactive
22,CGQFVEISKYG,inactive
23,FDAFM,inactive

row,Substance,amyloid nucleation score
1,SSSFVYFYSLVRFAPTLREY,inactive
2,GDGNRWDRTGSCHLQGAYCR,inactive
3,VSDYYDKYGLYFCWFWDGYK,inactive
4,IFFQCNVAMQKDSDAKGTYV,1.84 ± 0.067
5,ISRGVVIGTFRRLIERSCGT,inactive
6,AMTRCGECGHRMGKASAGMW,inactive
7,LFLLFFSAHGQYIRCAIIVR,inactive
8,HLGKRNEKNTVLARLNFGQ,inactive
9,SLLSRFIEEGASCRCTRDG,inactive
10,DCGSSCKSYPGKVVDNEMDE,inactive
11,EVGYKTVFPVGIMNDIVMWM,inactive
12,EKDNKLLVICMLV,inactive
13,RAICGMNFCNISHLT,3.05 ± 0.067
14,LYKGSHWDQAFLSVWYLGVL,inactive
15,CSTIVWWEIAYKL,inactive
16,VYDMCGNLQWAL,inactive
17,QLVVRCPCYNETVG,inactive
18,PNKDSLWDPFKQQSRSEK,-0.455 ± 0.93
19,RGMWSFHGYWRTGKYMATGG,inactive
20,KEYGLFLYLNFFLDWFNFIN,inactive
21,VRPELMALTDI,inactive
22,GALGSVMVNGRGVTSEGSPY,0.341 ± 0.39
23,RKSGYYLIVMRALNREPTPV,-0.363 ± 1.4

row,Substance,amyloid nucleation score
1,RVVGRRSNYFVFLFRTLGRN,inactive
2,RNVGKGNAVQSGPAWIERS,inactive
3,AMNNAGSGKQEYNRYGEIIN,inactive
4,TFFTGKIRNKAVFEDSSYCK,inactive
5,YLDFVFGLRTRDNYLWVRPT,inactive
6,CSLWSMQGYLHEWRICCWRH,inactive
7,FLTHVHQINADAFYAIL,1.84 ± 0.11
8,YYYAFEFPFSYHERSALYYC,inactive
9,ALHFDFIFIYRDRCCCCTFY,1.27 ± 0.1
10,YYTGCHSSVSC,inactive
11,RLLKFASYFVKDSRYNPDCF,inactive
12,AVCWLRMTYGLRLEVGSPVD,inactive
13,THCFNYILYSCSRAQSSCKY,2.29 ± 0.059
14,EMLYTLIIVYLVNMYFCTQS,inactive
15,RRWCLVAIIPIELNAGTEQH,inactive
16,ITSSVSFSRPYGVRGLLKKG,0.002 ± 0.43
17,RSQEVKTVGSLWQFFVSVLG,inactive
18,CLPPKS,inactive
